assay: soluble on expression in E. coli; label from the status in PepcDB or PDB records

| Sequence | soluble on expression in E. coli |
| --- | --- |
| MEKKITLIPPPEFVQYVGGHFEEVGKEFMQYFIEIGNLKSNETVLDVGCGIGRMAVPLMNYLSDDGTYYGFDLFNKGITWCKNNISTRRNNFHFEHVDIYNQFYNPDGKEDASQYKFPYEDESFDFIFLTSVFTHLLPKELEHYVREIARVLKKDGRCFITFFLINPESSYYLNAGLSPLGFYHQIDNCYVLNKDIPNFAVAYPEEDIRTLLNKYGLEMQTPPHYGSWCGRTEHTSYQDIILAQKLEHHHHHH | not soluble |
| STSTSGLTARISQTLFTSNSFVEEVASILQHWDTGLEASKRRIQDAKEKNSTVLDLQQLELSNEIFNELWPSIREIRNLKYLNLFLNRLTELPSDFGALSTLETLNLACNPLQSVPDSFSDLAMLRELDLGFTSTLCTVPEIFEKMTQLKVLYAGNNRLEKLPESVISLQCLEELHLYGNALNALPENIGNLKSLRLLNVGRNNLSSLPNSIGSLSSLEVLYLYENDLSSLPRSMKDLSKLRVLGLDGNPSLSSLPEHIKEPNAKAVAAYYAEME | soluble |
| MGGSFGKKGASSATAAQVPLATETTPGLMSPSEKLKLSTLTTSIATSDFYASYDFMMHSIGLTSANNISLLSTGNISLQNILSEGNHFGVQPIVSSTTANASFLAGMLMAIFPKESELEVTVYFKTPSAFNPAQLTVIGSTSIGLGISDRSGLIIENGNAFGGIVKASAATETGSTYALSTSTWYICKFKMLTDDRFKVTLYSDSGTQLYSYTSTAAMFRADNATAHIGFKTQCKTATAGISLISIDLIEFKAKVSATRAKV | soluble |
| LLSPPIALKPLDSSAKWRIIYWNPNGCDKTCLKQLNMLGRVRLSFGRKLYQVDEWLLLSNKDSLIAEELKPILKEQDIHVAALSLTEMSKLSTLYPEAKIFIANPDNYLILSYQPGCNPGDIYKDLKLLLNTTEIKSG | soluble |
| MPKSEPRYLTIYNQLKNQITSGTLTANEQLPTELQLAKAYNVSRITSKRALTELESQGLIYRKQGSGSFVQPTDQPKTNKQLLLVLPFPTDAGLGDYASGVSLAASAHHYQAVTMDSASFFNLSAKEIHENYAGVIYLPQDLYQEAERIYQLKLAQVPVVILDKTLPALELPVVTADNFSGGQIATDHLLQLGHQQILFYAQRNNTVLPSSVYERYFGYLTALNQQHVTPVTALADLPTLNQFSTNDWLTYLADHQITAIVVENDLTAIKLMNTLRKVDPKIWQRLSIVGFDNIQAASLTYPSLTTVAQDFKGMGTKAVSLLLKTPVQPTTVRLPVQLIQRDSTQPFQPISKEK | not soluble |
| HYRRHSVESKLARAALDGMTAVMISDASLRIIMVNQEFENMMGYSTEQVKGSNAHSLILLPEDLEETLNIWNKLGRENVWEGEVRCRTQLNHVFTAIMRIQANLTKSGKISYYITSLVDISE | not soluble |
| MTIAQEPTALNFECETGNYHTFCPISCVAWLYQKIEDSFFLVIGTKTCGYFLQNAMGVMIFAEPRYAMAELEEGDISAQLNDYAELKRLCEQIKRDRNPSVIVWIGTCTTEIIKMDLEGLAPKLEGEIGIPIVVARANGLDYAFTQGEDTVLAAMAHRCPDKAPVAELEHHHHHH | not soluble |
| MAHHHHHHMGTLEAQTQGPGSMKISFSEIIHNALKEDLGDKGDITTNSILINEKVNFAINTRENLVVCGIPILEEVFNMNKEHVKYEIHKKDGDITGKNSTLVSGEALAIYLLPIERVILNFIQHASGIASITRQFVDEVSGTKVKIRSTRKTTPGLRMLDKYSVCIGGGESYRDNLCDGVLIKDNHIASCGSITLAIQRLRKNLKNEYIAIECDNISQVEESLSNNVDMILLDNMSISEIKKAVDIVNGKSVLEVSGCVNIRNVRNIALTGVDYISIGCITNSFQNKDIGLDIEYNNNK | soluble |
| LQELETAVAETGFSRFPVTGKDGSYLGYVHIKDVLDRFDHSSPDTIIHRSEIRPLIIVDAAGTMDEALQSMHSKSAHMAQVRDRGLLLGVITLEDLIEEYVGTFSDWTHEQS | not soluble |
| MLKNLRIGKFEPEEEYVHFTYSIKNSEREKSKELIKEYRTLLQKAIDYLWSLTKIQVRKKNGNYKITLPKKKEVYKPLREELEKINHLASHYVDKAINDAFSILKSWRKRAIKGRASIEKPRVKKAYVRIKTTLRKVVGESVRITVRPHEYITFPWSKSWFSRRVRELELGEPIIKEEKVYLPFRYKLPWVTPVNFLAIDSNLYTLDAYDGEKFVTISLKQLYSLKYSMEVKRAKVQSFASKHTKRGRELMRKYSHRERNRVLDFVHKFVNALLDLYPMTFFAVEKLDKEGMFVDANESLSRKISRTVWRSIHRVLKYKAPLYGSFVKEVNPYLTSRSCPRCGFVSRKVGKTFECERCGFKLDRQLNASLNIYLKMCGFPHIREIARVWVGVIPLMGRRGMNVRDFGEAQGLRINIKYHEIPLEHHHHHH | not soluble |
| MAKILVFDEAARRALERGVNAVANAVKVTLGPRGRNVVLEKKFGSPTITKDGVTVAKEVELEDHLENIGAQLLKEVASKTNDVAGDGTTTATVLAQAIVREGLKNVAAGANPLALKRGIEKAVEAAVEKIKALAIPVEDRKAIEEVATISANDPEVGKLIADAMEKVGKEGIITVEESKSLETELKFVEGYQFDKGYISPYFVTNPETMEAVLEDAFILIVEKKVSNVRELLPILEQVAQTGKPLLIIAEDVEGEALATLVVNKLRGTLSVAAVKAPGFGDRRKEMLKDIAAVTGGTVISEELGFKLENATLSMLGRAERVRITKDETTIVGGKGKKEDIEARINGIKKELETTDSEYAREKLQERLAKLAGGVAVIRVGAATETELKEKKHRFEDALNATRAAVEEGIVPGGGVTLLRAISAVEELIKKLEGDEATGAKIVRRALEEPARQIAENAGYEGSVIVQQILAETKNPRYGFNAATGEFVDMVEAGIVDPAKVTRSALQNAASIGALILTTEAVVAEKPEKKESTPAFAGAGDMDF | soluble |
| MLRTEHYAFLPCISRALEERDSLGIRRELRARQQRLSMQQSRSKLGRVCVTGANSPLGQELVGALTRTPDPSLRPDAIGVIGARDPIESHSAGAGLHFPGPGVDFLECAATDLEHYNPRTLFSINDDDLGLRRRSIFRENQVVIDLLRAQGETNEPRSKTRLVLVTLLGCGDSEDAIPSQAFDVLRPLLLELSRVEQYVRESGLPYTIVRPGALEHGDADSRAIVSESKVGFGTIHRSTLAHLLLNVAASEKAVNKTLMALDMNRLLVAAPYVRPFEVWESPPFEVFDL | soluble |
| MGHHHHHHSHMSTVAFHTLGCKVNHYETEAIWQLFKQGGYERTEYEKKADVYVINTCTVTNTGDKKSRQVIRRAVRQNPDAVICVTGCYAQTSPAEIMAIPGVDIVVGTQDREKMLGYIEEFRKERQPINAVRNIMKTRVYEELDVPYFTDRTRASLKIQEGCNNFCTFCIIPWARGLMRSRDGKEVIKQAQQLVDAGYKEIVLTGIHTGGYGEDIKDYNLAGLLRDMEAEVGGLKRLRISSIEASQISDEVIEVLDKSEVVVRHLHIPLQSGSNTVLKRMRRKYTMEFFQERLDRLKEALPGLAITSDVIVGFPGETEEEFMETYNFIKENRFSELHVFPYSKRTGTPAARMEDQVPEDVKNDRVHRLIELSNQLAKEYASAFEGEVLEIIPEEQFKDGDREGLYVGYTDNYLKIVFEGSEELIGKLVKVKITKAGYPYNEAQFVRVLEDDVKKESASA | soluble |
| MAHTGENVLKGLPLKAIALAIALSNPVSAQTLEQAVSITLASNPELKSAFNQFKSREYDAEASSGAYLPKIDLDAGIGYEAINPAESSGNRNTDLTRKDATLTLTQLIWDGSATLNDMDRTAAEAEADRYQLLADASNMALEVAKIYLDATKASEILTLSENNLAIHKDIYRDIKKRADSGIGSTADVTQVEARLAKAHSNLVAAQNNLFDIYTQFRRLVGQEPVSLEFPRADQNAIPPTLENALNMAQENHPVIKVAQADVDAARFQYKQSKAPNYPTLSFEAAQSWRNDAGGIEGSSDELSAMLRLRYNLYNGGSDSDRTESAAYQLNRSKDLREKTFRTVEEGLRLSWSALDLTLQQKQFLADHVDSASKTVVSYRKQYQIGQRTLLDLLNTENELFEARKDYLDARYAEQYAKYRVMNASGNLLDALRVDIPQEWTAKVEY | not soluble |
| MKRQKRDRLERAQSQGYKAGLNGRSSEHCPYQSMDARSCWLGGWRDARDDKQSGLFKLEHHHHHH | not soluble |
| MRLRVDVIPGEHLAYPDVVLVVDVIRATTTAAAFLEAGAEALYWTPSLESALAFKDEDVVLAGETGGLKPPRFDLGNSPREALSAQVAGRVVVMSTTNGTKAAHAAARTAKHVLLASLYNAHAAARLARELATEEVAILCAGKEGRAGLDDLYTAGVLAEYLGFLGEVEPEDGARVALAVKRAYPDPLEALSLSAAALALKQVGLEADVPFCAQVAKSAAVPVLRGRVGEALIFKRA | soluble |
| SPTVEACGYSDRIIQITRGDSTITSQDVANAIVAYGVWPHYLSSKDASAIDKPSQPDTSSNRFYTLRSVTWSSSSKGWWWKLPDALKDMGIFGENMFYHYLGRSGYTIHVQCNASKFHQGTLIVALIPEHQIASALHGNVNVGYNYTHPGETGREVKAETRLNPDLQPTEEYWLNFDGTLLGNITIFPHQFINLRSNNSATIIAPYVNAVPMDSMRSHNNWSLVIIPICPLETSSAINTIPITISISPMCAEFSGARAKRQ | soluble |
| MLSKSLALGRRLTKISSSVKSISSITFKTVDGKPRDALTIHNVDFVIDPDEKMVDEYMKVYGNQRFNFKRNDIDIWRKSFKDSYSLWLVCLKGTNKIVQMSHVLNFPPLLSHNDILHQYHGFFWVDPDYRGKDSMAIMDYIEKHRARNQSDNDAGTFLTTAVTMWTKMHGHADYKHIMYVSYYKPDEMQIPEDLNLDGIFLKNATEVPDMDIVKYDNTVFPYERSKYMLNLLRDPEGFGKVAYDNNGKVIGFGNVIIYPSGECVLTPLYADDSKVAQAIFKSILKEIPLNDKKLLRFQIRSIDQCEGGFEWIQPFVKNPIRKEIMGHMAGSSHPPTVNYKKTYANTPYTTCVI | not soluble |
| MELKARAVGVEIIPKGKIIYYSVPNGDEYERGDLVLVLGDFGLEVGKVLIPPREVVIDEVGYELKAVIRKLTDEDLEQYRKNVEDALKAFQICKQKIKEHGLPMKLLYAKYTFDRTRLIFFFSAEGRVDFRELVRDLAKIFKTRIELRQVGVRDEMKFFGGLGLCGLPTCCSTFLREFTSVTLKHAKKQQMMINPAKISGPCRRLLCCLTYEYDFYEKELEGIPDEGSTITYEGKRYKVVNVNVFLRTVTLFSEQEGEMIKLPFDYFRKGE | soluble |
| MDRFHATSADCCISYTPRSIPCSLLESYFETNSECSKPGVIFLTKKGRRFCANPSDKQVQVCMRMLKLDTRIKTRKN | soluble |
| PILYLHGFRSSPDSFKARLLAQAMHQRGLAGQWQCPQLPASPRQAAELALALAREQLAGQQDPRRLTVIGSSLGGYYATWLAERLGCQAVLLNPAVQAARDLATQVGEHRMYHSDAPFHFLPEYVEELRALYADPLTHPERYFLVAATGDEVLDWREMRDRYPGCRQRIVQGGDHGLSDFPRWMPEVLEFA | not soluble |

Reference: the DeepSol protein solubility set
